These results are taken from FireProtDB.

The labels stand for the following.
B1: Adenylate kinase, P16304 (parent)
chain: MNLVLMGLPGAGKGTQGERIVEDYGIPHISTGDMFRAAMKEETPLGLEAKSYIDKGELVPDEVTIGIVKERLGKDDCERGFLLDGFPRTVAQAEALEEILEEYGKPIDYVINIEVDKDVLMERLTGRRICSVCGTTYHLVFNPPKTPGICDKDGGELYQRADDNEETVSKRLEVNMKQTQPLLDFYSEKGYLANVNGQQDIQDVYADVKDLLGGLKK
B2: DNA-Binding protein, P69542 (parent)
chain: MIKVEIKPSQAQFTTRSGVSRQGKPYSLNEQLCYVDLGNEYPVLVKITLDEGQPAYAPGLYTVHLSSFKVGQFGSLMIDRLRLVPAK
B3: DNA-binding transcriptional dual regulator CRP, P0ACJ8 (parent)
chain: MVLGKPQTDPTLEWFLSHCHIHKYPSKSTLIHQGEKAETLYYIVKGSVAVLIKDEEGKEMILSYLNQGDFIGELGLFEEGQERSAWVRAKTACEVAEISYKKFRQLIQVNPDILMRLSAQMARRLQVTSEKVGNLAFLDVTGRIAQTLLNLAKQPDAMTHPDGMQIKITRQEIGQIVGCSRETVGRILKMLEDQNLISAHGKTIVVYGTR
B4: Alpha-lactalbumin, P00711 (parent)
chain: MMSFVSLLLVGILFHATQAEQLTKCEVFRELKDLKGYGGVSLPEWVCTTFHTSGYDTQAIVQNNDSTEYGLFQINNKIWCKDDQNPHSSNICNISCDKFLDDDLTDDIMCVKKILDKVGINYWLAHKALCSEKLDQWLCEKL
B5: Cytochrome c-552, P15452 (parent)
chain: MKKFLLVAVVGLAGITFANEQLAKQKGCMACHDLKAKKVGPAYADVAKKYAGRKDAVDYLAGKIKKGGSGVWGSVPMPPQNVTDAEAKQLAQWILSIK
B6: Pseudoazurin, P80401 (parent)
chain: MFHHSLAAAAAALLALAAPGFAATHEVHMLNKGESGAMVFEPAFVRAEPGDVINFVPTDKSHNVEAIKEILPEGVESFKSKINESYTLTVTEPGLYGVKCTPHFGMGMVGLVQVGDAPENLDAAKTAKMPKKARERMDAELAQVN
B7: Osteomodulin, Q99983 (parent)
chain: MGFLSPIYVIFFFFGVKVHCQYETYQWDEDYDQEPDDDYQTGFPFRQNVDYGVPFHQYTLGCVSECFCPTNFPSSMYCDNRKLKTIPNIPMHIQQLYLQFNEIEAVTANSFINATHLKEINLSHNKIKSQKIDYGVFAKLPNLLQLHLEHNNLEEFPFPLPKSLERLLLGYNEISKLQTNAMDGLVNLTMLDLCYNYLHDSLLKDKIFAKMEKLMQLNLCSNRLESMPPGLPSSLMYLSLENNSISSIPEKYFDKLPKLHTLRMSHNKLQDIPYNIFNLPNIVELSVGHNKLKQAFYIPRNLEHLYLQNNEIEKMNLTVMCPSIDPLHYHHLTYIRVDQNKLKEPISSYIFFCFPHIHTIYYGEQRSTNGQTIQLKTQVFRRFPDDDDESEDHDDPDNAHESPEQEGAEGHFDLHYYENQE
B8: Phosphocarrier protein HPr, P08877 (parent)
chain: MAQKTFKVTADSGIHARPATVLVQTASKYDADVNLEYNGKTVNLKSIMGVMSLGIAKGAEITISASGADENDALNALEETMKSEGLGE
B9: Ribonuclease, P00648 (parent)
chain: MMKMEGIALKKRLSWISVCLLVLVSAAGMLFSTAAKTETSSHKAHTEAQVINTFDGVADYLQTYHKLPDNYITKSEAQALGWVASKGNLADVAPGKSIGGDIFSNREGKLPGKSGRTWREADINYTSGFRNSDRILYSSDWLIYKTTDHYQTFTKIR

Values joined by “and” are separate entries in the source; they are usually repeats but may differ in a detail not shown here. Equal values may be shown once.

Variants of B1 are the subject of one series. The following applies: Bacillus subtilis (strain 168); pH 7.4; Thermal; DSC; Hepes 50 mM; reversible: No; structure 2EU8; whole UniProt chain shown.
L3I G17A D23K K69R G73S D75S Y103M K105R E114Q D118E V119E S169T Q180A D184A S187D E188S G190E Y191V A193V Y205F D210V L211I K217Q: the “change of melting temperature, mutant - wild type (higher = more stable)” value (“change of melting temperature, mutant” for short) turned out to be 11.6 °C.
For the variant L3I G17A D23K K69R G73S D75S I99S Y103M K105R E114Q D118E V119E M121I E122A S169T Q180A D184A S187D E188S G190E Y191V A193V Y205F D210V L211I K217Q, the “change of melting temperature, mutant” value worked out at 12.5 °C.
The same measure, in the same setting: the result for D23K Y103M E114Q S169T Q180A S187D A193V V208L D210V K217Q reads 5 °C.

In another series the parent is B2. The following applies: Enterobacteria phage fd; pH 7; 25 °C; GdnHCl; CD; MOPS 50 mM; NaCl 100 mM; reversible: yes; structure 1VQB; whole UniProt chain shown.
On to T62V, for which the unfolding free energy was 1.3 kcal/mol.
On the same count and under the same terms, the result for T48V reads 0 kcal/mol.
Regarding L32W, the unfolding free energy was 2.8 kcal/mol.
On the same count and under the same terms, the figure for K24V is 0.8 kcal/mol.
The same measure, in the same setting: the result for E30M reads 0.6 kcal/mol; that for K69M, 0.1 kcal/mol.

In another series the parent is B3. Particulars: Escherichia coli (strain K12); pH 7.9; 20 °C; Thermal; CD; Tris-HCl 50 mM; KCl 100 mM; reversible: yes; structure 1G6N; whole UniProt chain shown.
In the case of S129A, the “ddG of mutation (higher = less stable)” value came to 0.26 kcal/mol and the unfolding free energy amounted to 7.06 kcal/mol.

In another series the parent is B4. Particulars: Bos taurus; pH 8; Thermal; Fluorescence; HEPES 10 mM; CaCl2 1 mM; structure 1HFZ; whole UniProt chain shown.
In the case of D106N, the Tm is 31.4 °C and the “change of melting temperature, mutant” value was 6.8 °C.

In a further series the parent is B5. The following applies: Hydrogenobacter thermophilus (strain DSM 6534 / IAM 12695 / TK-6); pH 7; Thermal; CD; reversible: yes; structure 1YNR; whole UniProt chain shown.
Regarding A91V, the “change of melting temperature, mutant” value is -7.5 °C and -2.9 °C.

The variants in the next series derive from B6. Particulars: Paracoccus pantotrophus; pH 7; 25 °C; Urea; CD; Sodium phosphate 20 mM; Na2SO4 0.5 M; reversible: yes; structure 1ADW; whole UniProt chain shown.
Regarding Y96W, the denaturant m value stood at 1.19 kcal/mol/M.

Variants of B7 are the subject of another series. The following applies: Homo sapiens; pH 7.4; Thermal; DSC; PBS; transition: 2; structure 5YQ5; whole UniProt chain shown.
Turning to E303R, the Tm came to 43.3 °C.
On to E225R, for which the Tm amounted to 41.8 °C.
For the variant E173R, the Tm was 42.3 °C.
As for N278R, the Tm is 38.5 °C.
Same read-out and setting: the figure for E284R is 42.3 °C; for D254R it is 37 °C; for E284R E303R it is 43.8 °C.

In a further series the parent is B8. Particulars: Bacillus subtilis (strain 168); pH 7; 30 °C; Urea; CD; Potassium phosphate 50 mM; reversible: yes; structure 2HPR; whole UniProt chain shown.
For S46D, the “ddG of mutation (higher = less stable)” value was -0.74 kcal/mol and the “denaturant midpoint (higher = more stable)” value was 4.63 M.

The series is the same for the next values; noted with them: Bacillus subtilis (strain 168); pH 7; 73.6 °C; Thermal; CD; Potassium phosphate 50 mM; reversible: yes; structure 2HPR; whole UniProt chain shown.
Regarding S46D, the “ddG of mutation (higher = less stable)” value was -0.7 kcal/mol.

In the next series the parent is B9. Particulars: Bacillus amyloliquefaciens; pH 6.3; 25 °C; Urea; Fluorescence; MES 1 M; structure 1BNI; whole UniProt chain shown.
Regarding A79G, the “ddG of mutation (higher = less stable)” value was 0.91 kcal/mol and the unfolding free energy stood at 7.99 kcal/mol.
In the case of K74A, the “ddG of mutation (higher = less stable)” value is -0.53 kcal/mol and the unfolding free energy was determined as 9.43 kcal/mol.

Staying with this series, now noted: Bacillus amyloliquefaciens; pH 2.7; Thermal; CD; glycine-HCl 20 mM; KCl 200 mM; reversible: yes; structure 1BNI; whole UniProt chain shown.
In the case of I51A I98V, the Tm turned out to be 25.7 °C.

Staying with this series, now noted: Bacillus amyloliquefaciens; pH 2.7; Thermal; DSC; glycine-HCl 20 mM; KCl 200 mM; reversible: yes; structure 1BNI; whole UniProt chain shown.
As for I51A I98V, the Tm was 25.4 °C.

The series is the same for the next values; noted with them: Bacillus amyloliquefaciens; pH 2.7; Thermal; DSC; glycine-HCl 20 mM; reversible: yes; structure 1BNI; whole UniProt chain shown.
For S132C H149C, the Tm came to 47.4 °C.

Staying with this series, now noted: Bacillus amyloliquefaciens; pH 6.3; 25 °C; Urea; Fluorescence; MES 50 mM; reversible: yes; structure 1BNI; whole UniProt chain shown.
For the variant Y125F, the “ddG of mutation (higher = less stable)” value amounted to 1.5 kcal/mol.
Still for that read-out and setting: the figure for T53A is 2.23 kcal/mol.
As to L61A, the “ddG of mutation (higher = less stable)” value came out at 4.8 kcal/mol.
Consider I135A, for which the “ddG of mutation (higher = less stable)” value amounted to 4.46 kcal/mol.

Still in this series, the particulars now being: Bacillus amyloliquefaciens; pH 6.3; 25 °C; Urea; Fluorescence; MES 10 mM; reversible: yes; structure 1BNI; whole UniProt chain shown.
With S75E, the “ddG of mutation (higher = less stable)” value is -0.61 kcal/mol, the denaturant m value is 1.99 kcal/mol/M, the “denaturant midpoint (higher = more stable)” value came out at 4.74 M and the unfolding free energy stood at 9.44 kcal/mol.

Still in this series, the particulars now being: Bacillus amyloliquefaciens; pH 6.3; 25 °C; Urea; Fluorescence; MES 1.00 M; NaCl 613 mM; reversible: yes; structure 1BNI; whole UniProt chain shown.
On to Y60A, for which the “ddG of mutation (higher = less stable)” value is 3.71 kcal/mol.
For the variant T63S Y64A, the “ddG of mutation (higher = less stable)” value was determined as 2.39 kcal/mol.

Still in this series, the particulars now being: Bacillus amyloliquefaciens; pH 6.3; 25 °C; Thermal; Fluorescence; MES 50 mM; structure 1BNI; whole UniProt chain shown.
As for D101A, the “ddG of mutation (higher = less stable)” value turned out to be 3.3 kcal/mol and the unfolding free energy was 6.9 kcal/mol.

In general, Tm refers to the temperature at the midpoint of the melting transition.
